From PMC7782738

Columns and labels:
[1] = target: fully functional core construct of the rat cardiac sodium channel NaV1.5 (rNaV1.5C) (rat) (UniProt P15389); experiment: cryo-EM structure; purified rNaV1.5C (~1 mg/ml) mixed with 50 uM LqhIII and purified FGF12b and calmodulin, re-run on Superose-6 in 25 mM imidazole pH 6.0, 150 mM NaCl, 0.006% GDN; peak concentrated to 5 mg/ml; no membrane potential
[2] = target: fully functional core construct of the rat cardiac sodium channel NaV1.5 (rNaV1.5C) (rat) (UniProt P15389)

UniProt P15389, sequence (P15389 whole entry): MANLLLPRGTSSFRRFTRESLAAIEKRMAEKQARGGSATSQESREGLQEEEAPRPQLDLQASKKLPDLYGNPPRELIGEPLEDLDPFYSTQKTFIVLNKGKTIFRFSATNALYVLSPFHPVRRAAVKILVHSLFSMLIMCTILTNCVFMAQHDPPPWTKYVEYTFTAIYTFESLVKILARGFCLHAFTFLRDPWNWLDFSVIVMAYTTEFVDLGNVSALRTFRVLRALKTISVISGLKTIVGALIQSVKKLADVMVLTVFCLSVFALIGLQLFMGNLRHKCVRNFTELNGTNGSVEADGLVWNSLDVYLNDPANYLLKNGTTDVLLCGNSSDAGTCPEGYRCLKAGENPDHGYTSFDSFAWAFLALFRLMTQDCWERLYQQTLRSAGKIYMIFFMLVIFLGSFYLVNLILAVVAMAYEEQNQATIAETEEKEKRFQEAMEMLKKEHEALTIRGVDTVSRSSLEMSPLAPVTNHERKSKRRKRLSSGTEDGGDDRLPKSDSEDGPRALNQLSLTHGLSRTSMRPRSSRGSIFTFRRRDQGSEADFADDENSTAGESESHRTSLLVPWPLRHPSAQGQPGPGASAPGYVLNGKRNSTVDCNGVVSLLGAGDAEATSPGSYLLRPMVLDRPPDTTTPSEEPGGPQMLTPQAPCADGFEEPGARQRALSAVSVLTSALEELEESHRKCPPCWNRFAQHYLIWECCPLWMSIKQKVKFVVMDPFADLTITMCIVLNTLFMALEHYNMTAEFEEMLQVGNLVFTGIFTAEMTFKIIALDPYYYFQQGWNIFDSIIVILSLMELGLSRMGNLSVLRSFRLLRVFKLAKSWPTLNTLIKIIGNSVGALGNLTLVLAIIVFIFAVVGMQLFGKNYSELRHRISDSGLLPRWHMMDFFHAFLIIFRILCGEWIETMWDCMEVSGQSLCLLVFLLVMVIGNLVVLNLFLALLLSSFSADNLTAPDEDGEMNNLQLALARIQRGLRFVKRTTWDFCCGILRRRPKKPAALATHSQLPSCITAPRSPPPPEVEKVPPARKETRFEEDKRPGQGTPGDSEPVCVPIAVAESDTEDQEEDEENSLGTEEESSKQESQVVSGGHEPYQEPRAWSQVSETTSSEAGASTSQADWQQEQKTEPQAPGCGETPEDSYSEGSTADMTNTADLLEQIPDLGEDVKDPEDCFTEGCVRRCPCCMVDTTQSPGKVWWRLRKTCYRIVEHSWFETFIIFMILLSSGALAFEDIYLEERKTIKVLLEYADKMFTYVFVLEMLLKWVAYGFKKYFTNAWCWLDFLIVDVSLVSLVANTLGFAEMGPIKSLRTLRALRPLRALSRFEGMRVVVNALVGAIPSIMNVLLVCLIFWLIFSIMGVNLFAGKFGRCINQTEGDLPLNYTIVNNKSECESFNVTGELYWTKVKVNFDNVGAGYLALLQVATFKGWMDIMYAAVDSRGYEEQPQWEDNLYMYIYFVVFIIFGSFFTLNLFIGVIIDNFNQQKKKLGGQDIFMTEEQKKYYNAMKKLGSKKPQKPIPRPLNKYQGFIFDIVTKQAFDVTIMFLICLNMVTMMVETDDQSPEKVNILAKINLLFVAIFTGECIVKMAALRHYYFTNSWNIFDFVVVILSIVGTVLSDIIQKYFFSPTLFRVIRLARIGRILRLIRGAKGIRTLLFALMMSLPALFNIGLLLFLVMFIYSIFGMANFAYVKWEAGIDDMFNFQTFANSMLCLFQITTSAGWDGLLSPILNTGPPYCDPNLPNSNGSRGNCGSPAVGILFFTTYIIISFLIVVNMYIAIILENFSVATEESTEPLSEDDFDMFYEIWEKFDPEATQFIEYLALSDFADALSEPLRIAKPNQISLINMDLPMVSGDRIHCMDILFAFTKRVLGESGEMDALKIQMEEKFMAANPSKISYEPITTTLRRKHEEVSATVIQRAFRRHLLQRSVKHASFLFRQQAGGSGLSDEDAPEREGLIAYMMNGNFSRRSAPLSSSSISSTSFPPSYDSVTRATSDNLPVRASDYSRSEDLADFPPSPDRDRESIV

B1: α-scorpion toxin LqhIII from the deathstalker scorpion Leiurus quinquestriatus hebraeus (natural protein)
chain: VRDGYIAQPENCVYHCFPGSSGCDTLCKEKGGTSGHCGFKVGHGLACWCNALPDNVGIIVEGEKCHS
stoichiometry N [1]: 1
inhibition of fast inactivation: sodium current remaining 6 ms after the depolarizing pulse, whole-cell patch clamp of HEK293S GnTI- cells expressing rNaV1.5C, 1-1000 nM LqhIII [2]: 11.4 nM
time course of the block of fast inactivation on perfusion of 100 nM LqhIII, cells held at -120 mV, single exponential fit [2]: 11.3 min
